Test results as given in PMC2625307.

Columns and labels:
[1] = molecular target: HIV-1 MN-25 envelope (HIV-1 group M)
[2] = molecular target: HIV-1 MN-8 envelope (HIV-1 group M)
[3] = molecular target: HIV-1 NL4.3 envelope (HIV-1 group M)
[4] = molecular target: HIV-1 SUMA d736-68 envelope (HIV-1 group M)
[5] = molecular target: HIV-1 SUMA d736-73 envelope (HIV-1 group M)
[6] = molecular target: HIV-1 WEAU 16-8M envelope (HIV-1 group M)
[7] = molecular target: SIVcpz GAB-1 fl envelope (SIVcpz (P.t.t)) (UniProt P17281)
[8] = molecular target: SIVcpz GAB-2 62 fl envelope (SIVcpz (P.t.t))
CD4M33 = test: SPR
CD4M47 = test: SPR
[Phe^23]M33 = SPR
[Phe^23]M47 = SPR

Sequence of SIVcpz GAB-1 fl envelope (SIVcpz (P.t.t)) (P17281 32-854): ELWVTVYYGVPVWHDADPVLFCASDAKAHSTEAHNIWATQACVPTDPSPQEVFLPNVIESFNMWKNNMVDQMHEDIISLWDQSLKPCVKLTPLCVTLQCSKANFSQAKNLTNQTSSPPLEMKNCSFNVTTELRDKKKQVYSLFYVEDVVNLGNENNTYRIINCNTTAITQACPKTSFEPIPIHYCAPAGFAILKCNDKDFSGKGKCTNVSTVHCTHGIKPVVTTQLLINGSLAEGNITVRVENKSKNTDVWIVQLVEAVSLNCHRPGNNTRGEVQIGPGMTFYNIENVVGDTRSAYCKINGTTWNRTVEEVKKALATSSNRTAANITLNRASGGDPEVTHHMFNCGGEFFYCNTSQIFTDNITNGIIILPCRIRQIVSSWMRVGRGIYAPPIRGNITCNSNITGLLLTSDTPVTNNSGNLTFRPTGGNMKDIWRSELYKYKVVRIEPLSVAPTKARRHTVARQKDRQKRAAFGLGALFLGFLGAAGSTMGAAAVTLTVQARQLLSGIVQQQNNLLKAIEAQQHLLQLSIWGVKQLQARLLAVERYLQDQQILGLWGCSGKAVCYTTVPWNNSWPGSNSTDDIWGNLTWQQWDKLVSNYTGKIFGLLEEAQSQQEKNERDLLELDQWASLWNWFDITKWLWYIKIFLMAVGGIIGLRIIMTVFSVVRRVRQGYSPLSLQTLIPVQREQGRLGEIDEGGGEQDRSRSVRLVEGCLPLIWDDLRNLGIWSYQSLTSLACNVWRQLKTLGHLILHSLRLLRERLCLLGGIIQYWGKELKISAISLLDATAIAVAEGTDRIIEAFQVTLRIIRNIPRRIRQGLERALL

Row | Substance | IC50 of neutralisation, HIV-entry assay on JC53BL-13 indicator cells [1] | IC50 of neutralisation, HIV-entry assay on JC53BL-13 indicator cells [2] | IC50 of neutralisation, HIV-entry assay on JC53BL-13 indicator cells [3] | IC50 of neutralisation, HIV-entry assay on JC53BL-13 indicator cells [4] | IC50 of neutralisation, HIV-entry assay on JC53BL-13 indicator cells [5] | IC50 of neutralisation, HIV-entry assay on JC53BL-13 indicator cells [6] | IC50 of neutralisation, HIV-entry assay on JC53BL-13 indicator cells [7] | IC50 of neutralisation, HIV-entry assay on JC53BL-13 indicator cells [8] | Kd (CD4M33) | koff (CD4M33) | kon (CD4M33) | Kd (CD4M47) | koff (CD4M47) | kon (CD4M47) | Kd ([Phe^23]M33) | koff ([Phe^23]M33) | kon ([Phe^23]M33) | Kd ([Phe^23]M47) | koff ([Phe^23]M47) | kon ([Phe^23]M47)
1 | CD4M33 (designed binder) | 350 nM | 34 nM | 5 nM | 4 nM | 480 nM | 85 nM | 340 nM | 400 nM |  |  |  |  |  |  |  |  |  |  |  | 
2 | CD4M47 (designed binder) | 150 nM | 11 nM | 3 nM | 3 nM | 370 nM | 64 nM | 150 nM | 230 nM |  |  |  |  |  |  |  |  |  |  |  | 
3 | YU2 gp120 (from UniProt P35961 32-498) (natural protein) |  |  |  |  |  |  |  |  | 12.5 nM | 0.00272 s⁻¹ | 218000 M⁻¹ s⁻¹ | 2.12 nM | 0.000741 s⁻¹ | 349000 M⁻¹ s⁻¹ | 35.1 nM | 0.00475 s⁻¹ | 135000 M⁻¹ s⁻¹ | 3.87 nM | 0.000427 s⁻¹ | 110000 M⁻¹ s⁻¹
4 | [Phe^23]M33 (designed binder) | 3600 nM | 85 nM | 13 nM |  | 8500 nM | 130 nM | 350 nM | 1000 nM |  |  |  |  |  |  |  |  |  |  |  | 
5 | [Phe^23]M47 (designed binder) | 320 nM | 15 nM | 4 nM | 7 nM | 950 nM | 47 nM | 69 nM | 290 nM |  |  |  |  |  |  |  |  |  |  |  | 
